Publication PMC4549865, “The Escherichia coli NarL receiver domain regulates transcription through promoter specific functions” (BMC Microbiology, 2015)

B1: NarL N-terminal domain plus linker region (NarL^N, residues 2-141), unphosphorylated (domain or fragment, Escherichia coli, UniProt P0AF28 2-141, looked up)
chain: SNQEPATILLIDDHPMLRTGVKQLISMAPDITVVGEASNGEQGIELAESLDPDLILLDLNMPGMNGLETLDKLREKSLSGRIVVFSVSNHEEDVVTALKRGADGYLLKDMEPEDLLKALHQAAAGEMVLSEALTPVLAAS
notes: NarL, nitrate response regulator of Escherichia coli; residues 2-141 (in-frame beginning at Ser2, stop codon introduced at Leu142); receiver domain and linker helix alpha6; The pQE9 construction puts a Gly in the place of Met1, before Ser2; also called NarL^(N (2–141)); NarL RD; source: E. coli JM109 (pQE9 derivative pMJ99), purified (Ni-NTA resin or HiTrap chelating column)
B2: Phosphorylated NarL receiver domain with portion of the linker (NarL^N-P, residues 2-141) (domain or fragment, Escherichia coli, UniProt P0AF28 2-141, looked up)
chain: B1 chain
modifications: phosphorylated with acetyl phosphate; the site of phosphorylation is Asp59
notes: NarL, nitrate response regulator of Escherichia coli; residues 2-141 (in-frame beginning at Ser2, stop codon introduced at Leu142); receiver domain and linker helix alpha6; The pQE9 construction puts a Gly in the place of Met1, before Ser2; also called phosphorylated NarL^N; phosphorylated RD

Target: the molecule itself
Assay: AUC; sedimentation equilibrium, 4 °C, Beckman Optima XL-A, absorption optics; samples at 60 μM and 160 μM in 25 mM Tris pH 7.5-8.5, 500 mM NaCl (other salts in some runs); 11,000-22,000 rpm; single-species fits and global fits of monomer-dimer and other models; monomer to dimer

Protein | stoichiometry N
B1 | 2
B2 | 2
